{"source": "patent US11884740", "about": "(TG THERAPEUTICS, dated 2024)", "binders": {"B1": {"name": "TG-1101 (TG Therapeutics, Inc.) (antibody, human IgG1, kappa)", "heavy": "not shown", "light": "QIVLSQSPAILSASPGEKVTMTCRASSSVSYMHWYQQKPGSSPKPWIYATSNLASGVPARFSGSGSGTSYSFTISRVEAEDAATYYCQQWTFNPPTFGGGTRLEIKRTVAAPSVFIFPPSDEQLKSGTASVVCLLNNFYPREAKVQWKVDNALQSGNSQESVTEQDSKDSTYSLSSTLTLSKADYEKHKVYACEVTHQGLSSPVTKSFNRGEC"}}, "experiment_in_all_cases": "cell-based or functional assay", "key": {"[1]": {"target": "T1, FcγIIIA Receptor on the effector cells (human, UniProt P08637 17-254)", "T1 sequence (P08637 17-254)": "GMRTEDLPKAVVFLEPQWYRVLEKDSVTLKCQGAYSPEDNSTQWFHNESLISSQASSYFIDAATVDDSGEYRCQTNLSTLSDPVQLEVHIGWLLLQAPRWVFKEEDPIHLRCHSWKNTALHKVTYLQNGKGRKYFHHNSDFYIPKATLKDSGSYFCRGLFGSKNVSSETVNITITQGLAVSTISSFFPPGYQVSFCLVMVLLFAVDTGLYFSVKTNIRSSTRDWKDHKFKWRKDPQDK"}, "[2]": {"target": "T1, FcγIIIA Receptor on the effector cells", "remark": "listed apart in the source"}, "[3]": {"target": "C1q Receptor in the complement system (rabbit serum as the source of complement) (rabbit)"}}}
{"binder": "B1", "values": [{"measurement": "EC50 of ADCC assay Using Primary NK Cells (Raji targets, LDH release)", "setting": "[1]", "result": 49000, "unit": "ng/mL"}, {"measurement": "EC50 (ADCC, Raji targets, KILR CD16a effector cells)", "setting": "[2]", "result": 0.00242, "unit": "ng/mL"}, {"measurement": "EC50 (CDC, Jeko-1 cells, rabbit complement)", "setting": "[3]", "result": 670, "unit": "ng/mL"}]}
